In assay [1] the target is T1, CDTb D4 fragment, CDTb residues 753 to 876 (Clostridioides difficile, UniProt O32739).
T1 construct: pET22b construct; source: E. coli BL21(DE3), purified (Ni-NTA, SEC); not shown: His6, C-terminal, kept
Description: BLI. The following applies: both partners purified.

Assay [2] concerns the target T2, cleaved, mature CDTb (from limited trypsinization of proCDTb) (Clostridioides difficile).
T2 chain: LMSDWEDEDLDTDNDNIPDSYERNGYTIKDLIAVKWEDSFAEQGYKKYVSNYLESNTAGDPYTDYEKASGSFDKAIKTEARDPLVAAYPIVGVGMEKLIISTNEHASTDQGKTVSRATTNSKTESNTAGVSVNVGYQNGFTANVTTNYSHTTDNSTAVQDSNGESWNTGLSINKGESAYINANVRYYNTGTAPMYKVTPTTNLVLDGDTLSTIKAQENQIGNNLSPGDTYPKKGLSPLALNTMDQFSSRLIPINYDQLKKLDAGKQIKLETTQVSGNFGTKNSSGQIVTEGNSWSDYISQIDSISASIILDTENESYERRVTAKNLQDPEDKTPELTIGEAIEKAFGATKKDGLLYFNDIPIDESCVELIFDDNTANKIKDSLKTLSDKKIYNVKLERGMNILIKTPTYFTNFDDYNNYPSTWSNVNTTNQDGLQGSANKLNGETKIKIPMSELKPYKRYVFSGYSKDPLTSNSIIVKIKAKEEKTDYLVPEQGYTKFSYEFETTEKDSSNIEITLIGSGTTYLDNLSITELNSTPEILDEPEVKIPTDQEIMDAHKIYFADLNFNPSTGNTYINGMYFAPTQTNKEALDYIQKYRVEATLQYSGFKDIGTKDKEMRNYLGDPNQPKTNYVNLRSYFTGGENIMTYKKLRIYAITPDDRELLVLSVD
Description: cell-based or functional assay.

In assay [3] the target is T3, CDTb protoxin (proCDTb), CDTb residues 43 to 876 (Clostridioides difficile, UniProt O32739).
T3 construct: pET24b construct for biophysical and structural studies; A different construct (pGEX-6p1, GST cleaved, C-terminal 6xHis) was used for immunisation and the neutralisation assay; also called proCTDb; source: E. coli BL21(DE3), purified (Ni-NTA, anion exchange, SEC); not shown: His6, C-terminal, kept
Description: SPR; proCDTb with C-terminal 6xHis immobilised (~200 RU) on NTA chip, Biacore X100; Fab flowed at 0.1-25 nM; 10 mM HEPES pH 8.0, 150 mM NaCl, 6 mM CaCl2, 0.05% Tween 20; association 180 s, dissociation 600 s; 1:1 binding model. To be noted: both partners purified. A general note: Surface plasmon resonance follows binding to a sensor surface in real time, without labels.

In assay [4] the target is T1, CDTb D4 fragment, CDTb residues 753 to …. Description: crystal structure. The following applies: both partners purified.

B1: BINTOXB/22 Fab (Fab, V domains shown)
VH: QIQLVQSGPELKKPGETVKISCKASGYTFTNYGMNWVKQAPGKDLKWMGWMSTYTGEPTYADDFKGRFAFSLETSASTAYLQINNLKNEDMATYFCARRGNYLSFDYWGQGTTLTVSS
VL: DIVMTQSHKFMSTSVGDRVSITCKASQDVSTAVGWYQQKPGQSPKLLIYSASYRYTGVPDRFTGSGSGTDFTFTISSVQAEDLAVYYCQQHYSPPFTFGSGTELEIK
On to B1, for which the binding result in assay [1] is given as “no binding (tested: 200 nM)”. Further, the “EC50 of protection of HT29 cells from CDT (CDTa 25 ng/mL + cleaved, monomeric CDTb 75 ng/mL) cytotoxicity, Hoechst-stained surface, BINTOXB/22 IgG; blocks CDTb oligomerization (m7 with m7)” value in assay [2] came to 21 µg/mL. Further, in assay [3], the Kd was 16.3 nM.

B2: BINTOXB/9 Fab (Fab, V domains shown)
VH: QVQLQQSGAELARPGASVKMSCKASGYTFTSYTMHWVKQRPGQGLEWIGYINPSNDYTSYNQKFKDKATLTADKSSSTAYMQLSSLTSEDSAVYYCARCWGYDPYYFDYWGQGTTLTVSS
VL: DIVMSQSPSLLAVSAGEKVTMSCKSSQSLLNSRTRKNYLAWYQQKPGQSPKVLIYWASTRESGVPDRFTGSGSGTDFTLTISSVQAEDLAVYYCKQSYNLLTFGAGTKLELK
In the case of B2, in assay [4], the binding result was “binds”. Also, the “EC50 of protection of HT29 cells from CDT (CDTa 25 ng/mL + cleaved, monomeric CDTb 75 ng/mL) cytotoxicity, Hoechst-stained surface, BINTOXB/9 IgG; blocks CDTb oligomerization (m7 with m7)” value in assay [2] came out at 13 µg/mL. In addition, the affinity in assay [3], expressed as Kd, was 0.73 nM.

As usually defined, the Kd is a measure of binding affinity in units of concentration. Low values mean tighter binding, high ones weaker binding.
